Measurements published in PMC11215065, “The HHV-6B U20 glycoprotein binds ULBP1, masking it from recognition by NKG2D and interfering with natural killer cell activation” (Frontiers in Immunology, 2024).

Target: T1, Soluble U20 extracellular domain (sU20) of HHV-6B (HHV-6B, nine N-linked glycosylation sites with high mannose glycans; after EndoH a single GlcNAc at each site)
T1 construct: HHV-6B U20 glycoprotein, extracellular domain; Dimer in solution when alone (SEC-MALS, SEC-SAXS); Used glyco-intact or EndoH-treated, as told for each assay; also called soluble recombinant U20; source: stably transduced HEK293 GnTI cells, purified from supernatant (Nickel-NTA, cation exchange, SEC); in some cases treated with EndoH; not shown: 6xHIS, C-terminal, kept
Experiment: SPR; Biacore 3000; biotinylated ULBP1-Fc (1000-2500 RU) on a Neutravidin coated CM5 chip; U20 injected at 0.125-32 μM; CD200 receptor Fc flow cell subtracted; equilibrium fit, one site specific binding, apparent; 20°C
Details: both partners purified

B1: ULBP1-Fc (Fc fusion)
chain: GWVDTHCLCYDFIITPKSRPEPQWCEVQGLVDERPFLHYDCVNHKAKAFASLGKKVNVTKTWEEQTETLRDVVDFLKGQLLDIQVENLIPIEPLTLQARMSCEHEAHGHGRGSWQFLFNGQKFLLFDSNNRKWTALHPGAKKMTEKWEKNRDVTMFFQKISLGDCKMWLEEFLMYWEQMLDPTKPPSLAPG
modifications: biotin on the BirA recognition sequence (for SPR)
Kd: ~230 nM
